Experimental data taken from paper PMC7367873, “Dissecting the sequence determinants for dephosphorylation by the catalytic subunits of phosphatases PP1 and PP2A” (Nature Communications, 2020).

Tests used:
[1] = system: GFP-14-3-3β and its binding proteins; test: GFP-14-3-3β co-IP with LC-MS/MS label-free quantification, untreated versus PP1c-treated; set-up: species or system human; details: GFP-14-3-3β co-IP LC-MS/MS; PP1 vs untreated; student's t-test; label-free quantification, 3 replicates each
GFP-14-3-3β = GFP-14-3-3β co-IP with LC-MS/MS, untreated GFP-14-3-3β versus GFP control (14-3-3 interactome); assay type: binding, human; details: GFP-14-3-3β co-IP LC-MS/MS; untreated vs GFP; student's t-test; label-free quantification, 3 replicates each

| Molecule | Difference (log2), PP1 vs untreated [1] | Difference (log2), untreated vs GFP (GFP-14-3-3β) |
| --- | --- | --- |
| HNRNPR (protein, UniProt O43390 2-633, looked up) Heterogeneous nuclear …: ANQVNGNAVQLKEEEEPMDTSSVTHTEHYKTLIEAGLPQKVAERLDEIFQTGLVAYVDLDERAIDALREFNEEGALSVLQQFKESDLSHVQNKSAFLCGVMKTYRQREKQGSKVQESTKGPDEAKIKALLERTGYTLDVTTGQRKYGGPPPDSVYSGVQPGIGTEVFVGKIPRDLYEDELVPLFEKAGPIWDLRLMMDPLSGQNRGYAFITFCGKEAAQEAVKLCDSYEIRPGKHLGVCISVANNRLFVGSIPKNKTKENILEEFSKVTEGLVDVILYHQPDDKKKNRGFCFLEYEDHKSAAQARRRLMSGKVKVWGNVVTVEWADPVEEPDPEVMAKVKVLFVRNLATTVTEEILEKSFSEFGKLERVKKLKDYAFVHFEDRGAAVKAMDEMNGKEIEGEEIEIVLAKPPDKKRKERQAARQASRSTAYEDYYYHPPPRMPPPIRGRGRGGGRGGYGYPPDYYGYEDYYDDYYGYDYHDYRGGYEDPYYGYDDGYAVRGRGGGRGGRGAPPPPRGRGAPPPRGRAGYSQRGAPLGPPRGSRGGRGGPAQQQRGRGSRGSRGNRGGNVGGKRKADGYNQPDSKRRQTNNQQNWGSQPIAQQPLQQGGDYSGNYGYNNDNQEFYQDTYGQQWK | -0.2799 log2 | 0.8033 log2 |
| IARS (protein, UniProt P41252 1-1262, looked up) Isoleucine--tRNA ligase, …: MLQQVPENINFPAEEEKILEFWTEFNCFQECLKQSKHKPKFTFYDGPPFATGLPHYGHILAGTIKDIVTRYAHQSGFHVDRRFGWDCHGLPVEYEIDKTLGIRGPEDVAKMGITEYNNQCRAIVMRYSAEWKSTVSRLGRWIDFDNDYKTLYPQFMESVWWVFKQLYDKGLVYRGVKVMPFSTACNTPLSNFESHQNYKDVQDPSVFVTFPLEEDETVSLVAWTTTPWTLPSNLAVCVNPEMQYVKIKDVARGRLLILMEARLSALYKLESDYEILERFPGAYLKGKKYRPLFDYFLKCKENGAFTVLVDNYVKEEEGTGVVHQAPYFGAEDYRVCMDFNIIRKDSLPVCPVDASGCFTTEVTDFAGQYVKDADKSIIRTLKEQGRLLVATTFTHSYPFCWRSDTPLIYKAVPSWFVRVENMVDQLLRNNDLCYWVPELVREKRFGNWLKDARDWTISRNRYWGTPIPLWVSDDFEEVVCIGSVAELEELSGAKISDLHRESVDHLTIPSRCGKGSLHRISEVFDCWFESGSMPYAQVHYPFENKREFEDAFPADFIAEGIDQTRGWFYTLLVLATALFGQPPFKNVIVNGLVLASDGQKMSKRKKNYPDPVSIIQKYGADALRLYLINSPVVRAENLRFKEEGVRDVLKDVLLPWYNAYRFLIQNVLRLQKEEEIEFLYNENTVRESPNITDRWILSFMQSLIGFFETEMAAYRLYTVVPRLVKFVDILTNWYVRMNRRRLKGENGMEDCVMALETLFSVLLSLCRLMAPYTPFLTELMYQNLKVLIDPVSVQDKDTLSIHYLMLPRVREELIDKKTESAVSQMQSVIELGRVIRDRKTIPIKYPLKEIVVIHQDPEALKDIKSLEKYIIEELNVRKVTLSTDKNKYGIRLRAEPDHMVLGKRLKGAFKAVMTSIKQLSSEELEQFQKTGTIVVEGHELHDEDIRLMYTFDQATGGTAQFEAHSDAQALVLLDVTPDQSMVDEGMAREVINRIQKLRKKCNLVPTDEITVYYKAKSEGTYLNSVIESHTEFIFTTIKAPLKPYPVSPSDKVLIQEKTQLKGSELEITLTRGSSLPGPACAYVNLNICANGSEQGGVLLLENPKGDNRLDLLKLKSVVTSIFGVKNTELAVFHDETEIQNQTDLLSLSGKTLCVTAGSAPSLINSSSTLLCQYINLQLLNAKPQECLMGTVGTLLLENPLGQNGLTHQGLLYEAAKVFGLRSRKLKLFLNETQTQEITEDIPVKTLNMKTVYVSVLPTTADF | -0.336 log2 | -0.1582 log2 |
| OSBPL3 (protein, UniProt Q9H4L5 1-887, looked up) Oxysterol-binding …: MMSDEKNLGVSQKLVSPSRSTSSCSSKQGSRQDSWEVVEGLRGEMNYTQEPPVQKGFLLKKRKWPLKGWHKRFFYLDKGILKYAKSQTDIEREKLHGCIDVGLSVMSVKKSSKCIDLDTEEHIYHLKVKSEEVFDEWVSKLRHHRMYRQNEIAMFPHEVNHFFSGSTITDSSSGVFDSISSRKRSSISKQNLFQTGSNVSFSCGGETRVPLWLQSSEDMEKCSKDLAHCHAYLVEMSQLLQSMDVLHRTYSAPAINAIQGGSFESPKKEKRSHRRWRSRAIGKDAKGTLQVPKPFSGPVRLHSSNPNLSTLDFGEEKNYSDGSETSSEFSKMQEDLCHIAHKVYFTLRSAFNIMSAEREKLKQLMEQDASSSPSAQVIGLKNALSSALAQNTDLKERLRRIHAESLLLDSPAVAKSGDNLAEENSRDENRALVHQLSNESRLSITDSLSEFFDAQEVLLSPSSSENEISDDDSYVSDISDNLSLDNLSNDLDNERQTLGPVLDSGREAKSRRRTCLPAPCPSSSNISLWNILRNNIGKDLSKVAMPVELNEPLNTLQRLCEELEYSELLDKAAQIPSPLERMVYVAAFAISAYASSYYRAGSKPFNPVLGETYECIREDKGFQFFSEQVSHHPPISACHAESRNFVFWQDVRWKNKFWGKSMEIVPIGTTHVTLPVFGDHFEWNKVTSCIHNILSGQRWIEHYGEIVIKNLHDDSCYCKVNFIKAKYWSTNAHEIEGTVFDRSGKAVHRLFGKWHESIYCGGGSSSACVWRANPMPKGYEQYYSFTQFALELNEMDPSSKSLLPPTDTRFRPDQRFLEEGNLEEAEIQKQRIEQLQRERRRVLEENHVEHQPRFFRKSDDDSWVSNGTYLELRKDLGFSKLDHPVLW | -0.2879 log2 | 1.582 log2 |
| HNRNPUL1 (protein, UniProt Q9BUJ2 1-856, looked up) Heterogeneous nuclear …: MDVRRLKVNELREELQRRGLDTRGLKAELAERLQAALEAEEPDDERELDADDEPGRPGHINEEVETEGGSELEGTAQPPPPGLQPHAEPGGYSGPDGHYAMDNITRQNQFYDTQVIKQENESGYERRPLEMEQQQAYRPEMKTEMKQGAPTSFLPPEASQLKPDRQQFQSRKRPYEENRGRGYFEHREDRRGRSPQPPAEEDEDDFDDTLVAIDTYNCDLHFKVARDRSSGYPLTIEGFAYLWSGARASYGVRRGRVCFEMKINEEISVKHLPSTEPDPHVVRIGWSLDSCSTQLGEEPFSYGYGGTGKKSTNSRFENYGDKFAENDVIGCFADFECGNDVELSFTKNGKWMGIAFRIQKEALGGQALYPHVLVKNCAVEFNFGQRAEPYCSVLPGFTFIQHLPLSERIRGTVGPKSKAECEILMMVGLPAAGKTTWAIKHAASNPSKKYNILGTNAIMDKMRVMGLRRQRNYAGRWDVLIQQATQCLNRLIQIAARKKRNYILDQTNVYGSAQRRKMRPFEGFQRKAIVICPTDEDLKDRTIKRTDEEGKDVPDHAVLEMKANFTLPDVGDFLDEVLFIELQREEADKLVRQYNEEGRKAGPPPEKRFDNRGGGGFRGRGGGGGFQRYENRGPPGGNRGGFQNRGGGSGGGGNYRGGFNRSGGGGYSQNRWGNNNRDNNNSNNRGSYNRAPQQQPPPQQPPPPQPPPQQPPPPPSYSPARNPPGASTYNKNSNIPGSSANTSTPTVSSYSPPQPSYSQPPYNQGGYSQGYTAPPPPPPPPPAYNYGSYGGYNPAPYTPPPPPTAQTYPQPSYNQYQQYAQQWNQYYQNQGQWPPYYGNYDYGSYSGNTQGGTSTQ | -0.3133 log2 | 0.2278 log2 |

Second part, led by results:

| Difference (log2), PP1 vs untreated [1] | Molecule | Difference (log2), untreated vs GFP (GFP-14-3-3β) |
| --- | --- | --- |
| -0.2929 log2 | PWP2 (protein, UniProt Q15269 1-919, looked up) Periodic tryptophan protein 2 …: MKFAYRFSNLLGTVYRRGNLNFTCDGNSVISPVGNRVTVFDLKNNKSDTLPLATRYNVKCVGLSPDGRLAIIVDEGGDALLVSLVCRSVLHHFHFKGSVHSVSFSPDGRKFVVTKGNIAQMYHAPGKKREFNAFVLDKTYFGPYDETTCIDWTDDSRCFVVGSKDMSTWVFGAERWDNLIYYALGGHKDAIVACFFESNSLDLYSLSQDGVLCMWQCDTPPEGLRLKPPAGWKADLLQREEEEEEEEDQEGDRETTIRGKATPAEEEKTGKVKYSRLAKYFFNKEGDFNNLTAAAFHKKSHLLVTGFASGIFHLHELPEFNLIHSLSISDQSIASVAINSSGDWIAFGCSGLGQLLVWEWQSESYVLKQQGHFNSMVALAYSPDGQYIVTGGDDGKVKVWNTLSGFCFVTFTEHSSGVTGVTFTATGYVVVTSSMDGTVRAFDLHRYRNFRTFTSPRPTQFSCVAVDASGEIVSAGAQDSFEIFVWSMQTGRLLDVLSGHEGPISGLCFNPMKSVLASASWDKTVRLWDMFDSWRTKETLALTSDALAVTFRPDGAELAVATLNSQITFWDPENAVQTGSIEGRHDLKTGRKELDKITAKHAAKGKAFTALCYSADGHSILAGGMSKFVCIYHVREQILMKRFEISCNLSLDAMEEFLNRRKMTEFGNLALIDQDAGQEDGVAIPLPGVRKGDMSSRHFKPEIRVTSLRFSPTGRCWAATTTEGLLIYSLDTRVLFDPFELDTSVTPGRVREALRQQDFTRAILMALRLNESKLVQEALEAVPRGEIEVVTSSLPELYVEKVLEFLASSFEVSRHLEFYLLWTHKLLMLHGQKLKSRAGTLLPVIQFLQKSIQRHLDDLSKLCSWNHYNMQYALAVSKQRGTKRSLDPLGSEEEAEASEDDSLHLLGGGGRDSEEEMLA | 0.9621 log2 |
| -0.3214 log2 | ABCF3 (protein, UniProt Q9NUQ8 2-709, looked up) ATP-binding cassette …: ATCAEILRSEFPEIDGQVFDYVTGVLHSGSADFESVDDLVEAVGELLQEVSGDSKDDAGIRAVCQRMYNTLRLAEPQSQGNSQVLLDAPIQLSKITENYDCGTKLPGLLKREQSSTVNAKKLEKAEARLKAKQEKRSEKDTLKTSNPLVLEEASASQAGSRKESRLESSGKNKSYDVRIENFDVSFGDRVLLAGADVNLAWGRRYGLVGRNGLGKTTLLKMLATRSLRVPAHISLLHVEQEVAGDDTPALQSVLESDSVREDLLRRERELTAQIAAGRAEGSEAAELAEIYAKLEEIEADKAPARASVILAGLGFTPKMQQQPTREFSGGWRMRLALARALFARPDLLLLDEPTNMLDVRAILWLENYLQTWPSTILVVSHDRNFLNAIATDIIHLHSQRLDGYRGDFETFIKSKQERLLNQQREYEAQQQYRQHIQVFIDRFRYNANRASQVQSKLKMLEKLPELKPVDKESEVVMKFPDGFEKFSPPILQLDEVDFYYDPKHVIFSRLSVSADLESRICVVGENGAGKSTMLKLLLGDLAPVRGIRHAHRNLKIGYFSQHHVEQLDLNVSAVELLARKFPGRPEEEYRHQLGRYGISGELAMRPLASLSGGQKSRVAFAQMTMPCPNFYILDEPTNHLDMETIEALGRALNNFRGGVILVSHDERFIRLVCRELWVCEGGGVTRVEGGFDQYRALLQEQFRREGFL | 1.23 log2 |
